Here are results for 13 molecules from patent US20210284724A1 (I MAB BIOPHARMA US, published 2021).

Usually IC50 stands for the point on the concentration scale where inhibition reaches its midpoint. Higher therefore signals weaker potency in that assay. The term EC50 denotes the midpoint of the concentration-response curve. Read a high EC50 as weaker potency.

Test [1] has as its target T1, human CXCL13 (human, UniProt O43927 23-109).
T1 construct: also called huCXCL13; rhCXCL13
T1 sequence (looked up): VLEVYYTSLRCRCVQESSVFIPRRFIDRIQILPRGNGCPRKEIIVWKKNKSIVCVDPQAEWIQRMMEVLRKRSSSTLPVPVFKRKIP
Briefly: cell-based blocking ELISA, CXCL13 to CHO-K1-CXCR5. As for the experimental part: Splenocytes were electro-fused with mouse myeloma cell line SP2/0 cells and plated into 96-well culture plate. The hybridoma supernatants were tested by ELISA binding assay for anti-human CXCL13 binders. Supernatants of positive binding clones were screened for function in blocking of human CXCL13 binding to its […] CXCR5 by Cell-based receptor blocking ELISA assay. Briefly, 5×10⁴ CHO-K1-CXCR5 cells were plated in 96-well plate with 100 μl of culture medium and incubated at 37° C. overnight. Cells were fixed with 100 μl of 2% PFA at RT for 1 hr after washing with PBS for 1 time. Blocking was done with 1% BSA in PBST for 1 hr at RT. Supernatants were diluted with PBS and pre-incubated with equal volume of 0.3 μg/ml human CXCL13 for 30 min at RT. 100 μl of antibody-antigen complex was then transferred into each cell wells for 30 min at RT. The samples were washed with 1×PBST for 3 times and 100 μl of 3 μg/ml of human Mab5261 antibody was add into each well to capture human CXCL13 and anti-human Fc-HRP was used to indirectly detect human CXCL13 when it bound to CHO-K1-CXCR5 cells. […] Reading was done at […].
Those antibodies were purified from hybridoma supernatants by binding with Protein G column and characterized by ELISA binding assays and cell-based blocking ELISA assays. […] 11/20 clones bound to both human CXCL13 and cynomolgus CXCL13 appeared to completely block human CXCL13 to human CXCR5. 11 blockers bound to both huCXCL13 and cynoCXCL13 were produced as chimeric human IgG1 antibodies for further Characterization.
(ELISA stands for enzyme-linked immunosorbent assay.)

Another test concerns the target T2, mouse CXCL13 (mouse, UniProt O55038 22-109).
T2 construct: also called rmCXCL13
T2 sequence (looked up): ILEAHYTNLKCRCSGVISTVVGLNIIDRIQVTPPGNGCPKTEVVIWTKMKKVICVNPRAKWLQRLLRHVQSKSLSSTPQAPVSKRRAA
Briefly: ELISA, coated antigen.

Test [2] has as its target T1, human CXCL13. Briefly: ELISA, coated antigen.
The target of a further test is T3, cynomolgus CXCL13 (cynomolgus, UniProt H6WS58 23-109).
T3 construct: also called cynoCXCL13; Cyno CXCL13
T3 sequence: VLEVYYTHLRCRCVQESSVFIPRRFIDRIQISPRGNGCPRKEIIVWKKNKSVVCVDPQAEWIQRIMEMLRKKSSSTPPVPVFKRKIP
Briefly: ELISA, coated antigen.

B1: 408E3F3 (antibody, V domains shown)
VH: HVTLRESGPGVLQPSKTLSLTCSFSGFSLSTSAMVVSWIRQSSGMSLEWLAAIDWEGDKYYNPSLESRLTVSRDISDTQVFLRITSVDVADTATYYCAVMSSADSHSVLDAWGQGVSVTVSS
VL: DIKMTQSPSFLSASVGDRVTINCKASQNIHNYLNWYQQKFGEAPRLLIYNTNNLQTGIPSRFSGSGSGTDFTLTISSLQPEDVATYFCLQHSSSLTFGSGTKLEIN
notes: Hybridoma mAb
For the molecule B1, the IC50 with human CXCL13 [1] amounted to 1.49 µg/mL. Also, the binding result with mouse CXCL13 is given as “no binding”. Besides, the EC50 in the test with human CXCL13 [2] amounted to 0.0237 µg/mL; with cynomolgus CXCL13, 0.0706 µg/mL.

B2: 64C10G1 (antibody, V domains shown)
VH: EVQLVESGGGLVKPGGSLKLSCAASGFTFSSYAMSWVRQTPEKRLEWVATISDGGSDAYYPDNVKGRFTISRDNAKNNLYLQMSHLKSEDTAMYYCARDYYGSGYEDSPMDYWGQGTSVTVSS
VL: DIQMTQSPSSLSASLGGKVTITCKASQDINKYIAWYQHKPGKGPRLLIHYTSTLQPGIPSRFSGSGSGRDYSFSISNLEPEDFATYYCLQYDNLYTFGGGTKLEIK
notes: Hybridoma mAb
In the test with human CXCL13 [1], B2 yielded an IC50 of 0.33 µg/mL. Moreover, the binding result in the test with mouse CXCL13 is recorded as “no binding”. For the same molecule, the 50% effective concentration (EC50) with human CXCL13 [2] is 0.0314 µg/mL; with cynomolgus CXCL13, 0.347 µg/mL.

B3: 175E3B10 (antibody, V domains shown)
VH: QVTLKESGPGILQPSQTLSLTCSFSEFSLSVFGMGVGWIRQPSGKGLEWLAHIWWDDEKYYNPALKSRLTISKDTSKNQVFLKIANVDTADTATYFCARIDGYYDFDYWGQGTTLTVSS
VL: DVLMTQTPLSLPVSLGTQASIFCRSSHSIVQDNGNTYLQWYLQKPGQSPKLLIYKVSNRFSGVPDRFSGSGSGTDFTLKISRVEAEDLGVYYCFQGSYVPYTFGGGTKLEIK
notes: Hybridoma mAb
On to B3, for which the IC50 in the test with human CXCL13 [1] was 1.42 µg/mL. Further, the binding result with mouse CXCL13 and with cynomolgus CXCL13 was “no binding” each time. Further, in the test with human CXCL13 [2], a half-maximal response (EC50) required 0.0326 µg/mL.

B4: 184H10B5 (antibody, V domains shown)
VH: QVTLKESGPGILQPSQTLSLTCSFSEFSLSVFGMGVGWIRQPSGKGLEWLAHIWWDDEKYYNPALKSRLTISKDTSKNQVFLKIANVDTADTATYYCARIDGYYDFDYWGQGTTLTVSS
VL: DVLMTQTPLSLPVSLGTQASISCRSSHSIVQDNGNTYLQWYLQKPGQSPQLLIYKVSNRFSGVPDRFSGSGSGTDFTLKISRVEAEDLGVYYCFQGSYVPYTFGGGTKLEIK
notes: Hybridoma mAb
B4 showed an IC50 with human CXCL13 [1] of 4.85 µg/mL. In addition, the binding result with mouse CXCL13 and with cynomolgus CXCL13 was “no binding” in each case. The half-maximal effective concentration (EC50) in the test with human CXCL13 [2] was 0.0272 µg/mL.

B5: 411A11E9 (antibody, V domains shown)
VH: EVQLVESGGGLVQPGGSLKLSCVVSGFTFSDYYMAWVRQTPTKGLEWVASINYDGGDTYYRDSVKGRFTVSRNNAKSSLFLQMDSLRSEDTATYYCKTEEDYDGSYVMDAWGQGASVIVSS
VL: DIQMTQSPSFLSASVGDRVTISCKASQNINKELTWYQQKLGKAPKRLIYNTNILQTGIPSRFSGSGSNTDYTLTISSLQPEDFATYFCLQQSSLYTFGAGTKLELK
notes: Hybridoma mAb
Take B5: the midpoint of inhibition with human CXCL13 [1], the IC50, lay at 0.793 µg/mL. Also, the binding result with mouse CXCL13 was “no binding”. For the same molecule, the half-maximal effective concentration (EC50) stood at 0.0201 µg/mL with human CXCL13 [2] and 0.252 µg/mL with cynomolgus CXCL13.

B6: 415A3D1F4 (antibody, V domains shown)
VH: EVKLLESGGGLVQAGGSMRLSCGAFGFTVTDFYINWIRQPAGKAPEWLGFMRNKANGYTTEYNPSVKGRFTISRNNTQNMPYLQMNTLRTEDTAIYYCARSRYNADDYYVGVMDVWGQGASVTVSS
VL: DIQMTQFPASLSASLGETVSIECLASEDIYNNLAWYQQKPGKSPQLLIYYTNSLQDGVPSRFSGTGSGTQYSLKINSLESEDAATYFCLQDSEYPWTFGGGTKLKLK
notes: Hybridoma mAb
For the molecule B6, the IC50 with human CXCL13 [1] was found to be 0.698 µg/mL. The binding result with mouse CXCL13 is recorded as “no binding”. The EC50 was 0.0132 µg/mL with human CXCL13 [2] and 0.0711 µg/mL with cynomolgus CXCL13.

B7: 19H7E10 (antibody, V domains shown)
VH: EVQLQQSGPELVKPGASVKISCQASGYAFSDYYMNWVKQSHGKRLEWIGDINPNNDGTTYNQKFKDKATLTVDKSSSTAYMDLRSLTSEDSAVYYCARLSWSFFAMDYWGQGTSVTVSS
VL: DIVMTQSHKFMSTSVGDRVSITCKASQDVSSGVAWYQQKPGQSPKVLIYSASHRHTGVPDRFTASGSGTDFTFTISSVQAEDLAVYYCQQYYNTPWTFGGGTKLEIK
notes: Hybridoma mAb
For B7, the half-inhibitory concentration (IC50) in the test with human CXCL13 [1] was 2.22 µg/mL. The binding result in the test with mouse CXCL13 is on record as “no binding”. Further, the EC50 with human CXCL13 [2] amounted to 0.0385 µg/mL; with cynomolgus CXCL13, 0.196 µg/mL.

B8: 156H3H7 (antibody, V domains shown)
VH: EVQLQQSGPELVKPGASVKISCKASGYTFTDYYMNWVRQSHGKSLEWIGDINPNNGDTTYNQKFKGKATLTVDTSSSTVYMELRSLTSEDSAVYYCAGYDEDHYAMDYWGQGTSVTVSS
VL: DYVMTQSHKFMSTSVGDRVSITCKASQDVSTGVAWYQQNPGQSPKLLIYSASHRYTGVPDRFTGSGSGTDFTFTISSVQAEDLAVYYCQQYYTTPWTFGGGTKLEIK
notes: Hybridoma mAb
On to B8, for which 4.59 µg/mL corresponded to half-maximal inhibition with human CXCL13 [1] (IC50). Moreover, the binding result with mouse CXCL13 and with cynomolgus CXCL13 was “no binding” each time. In addition, the concentration giving a half-maximal response (EC50) in the test with human CXCL13 [2] was 0.0134 µg/mL.

B9: 177D2G10 (antibody, V domains shown)
VH: QIALKESGPGILQSSQTLSLTCSFSGFSLSTSGMHVGWFRQPSGKTLEWLAHIYWDDDKRYNPSLKSRLTISKDTSRNQVFLNLTNVDTADTATYYCARRGGDYDYDEGFDYWGQGTTLTVSS
VL: DVVMTQTPLSLPVSLGDQASISCRSSQSLVHSNGFTYLHWYLQKPGQSPKLLIYKVSNRFSGVPDRFSGSGSGTEFTLRISRVEAEDLGVYFCSQSTHVPYTFGGGTKLEIK
notes: Hybridoma mAb
Turning to B9, the half-inhibitory concentration (IC50) in the test with human CXCL13 [1] is about 912 µg/mL. Further, the binding result in the test with mouse CXCL13 and with cynomolgus CXCL13 was “no binding” each time. Further, the half-maximal effective concentration (EC50) with human CXCL13 [2] turned out to be 0.0544 µg/mL.

B10: 168D6F2 (antibody, V domains shown)
VH: QVQLQQPGAELVKPGASVKLSCQASGYTFTSYWMHWVKQRPGRGLEWIGGIDPDSGATKDNEKFKTKATLTVDKPSRTAYIQLSSLTSEDSAVFYCARGSTVVAPGDYFAMDYWGQGTSVTVSS
VL: DIVLTPSPTSLAVSLGQRATMSCRASESVDNYGISFMHWYQQKPGQPPKLLIYRASNLDSGIPARFSASGSRTDFTLTINPVETDDVATYYCQQSNKDPWTFGGGTKLEIK
notes: Hybridoma mAb
In the test with human CXCL13 [1], B10 showed an IC50 of 2.09 µg/mL. Further, the binding result with mouse CXCL13 and with cynomolgus CXCL13 was “no binding” each time. In addition, in the test with human CXCL13 [2], it took 0.0218 µg/mL to reach a half-maximal effect (EC50).

B11: 119H10D6 (antibody, V domains shown)
VH: QVQLQQSGAELMKPGASVKISCKATGYTFNTYWIEWVKQRPGHGLEWIGEILPGSESTDYNEKFKDKATFTADISSNTAYMQLSSLTSEDSAVYYCARDYYGYYFDYWGQGTTLTVSS
VL: DIVMTQSHKFMSTSVGDRVSITCKASQDVSTAVVWYQQKPGQSPKLLIYSASYRYTGVPDRFSGSGSGTDFTFTISSVQAEDLAVYYCQQHYSSPRTFGGGTKLEIK
notes: Hybridoma mAb
As to B11, in the test with human CXCL13 [1], the IC50 stood at 0.533 µg/mL. Moreover, the binding result with mouse CXCL13 and with cynomolgus CXCL13 was “no binding” throughout. Also, the midpoint of the response with human CXCL13 [2], the EC50, lay at 0.0393 µg/mL.

B12: 168A2D4 (antibody, V domains shown)
VH: EVQLQQSGPELVKPGASVKISCKASGNTLTDYYMNWVKQSHGKSLEWIGDINPNNGDIIYNQKFKGKATLTVAKSSSTAYMELRSLTSEDSAVYYCAIYYDPYYHAMDYWGQGTSVTVSS
VL: DIVMTQSHKFMSTSVRDRVSITCKASQDVSTGVAWYQQKPGQSPKLLIYSASYRYTGVPDRFTGSGSGTDFTFTISSVQAEDLAVYYCQQQYSVPLTFGAGTKLELK
notes: Hybridoma mAb
Consider B12, for which the concentration for half-maximal inhibition (IC50) with human CXCL13 [1] came to 0.29 µg/mL. The binding result in the test with mouse CXCL13 and with cynomolgus CXCL13 was “no binding” each time. Besides, the EC50 in the test with human CXCL13 [2] was found to be 0.134 µg/mL.

B13: 130D6G1 (antibody, V domains shown)
VH: QVQLQQSGAELMKPGASVKISCKSTGYTFSTYWIEWVKQRPGHGLEWIGEILPGSDSTNSNEKFEGKATFTADTSSNTAYMQLSSLTSEDSAVYYCARDYYGFYFDYWGQGTTLTVSS
VL: DIVMTQSHKFMSTSVGDRVNITCKASQDVSTAVAWYQQKPGQSPKLLIYSTSYRYTGVPDRFTGSGSGTDFTFTISNVQAEDLAVYYCQQHYTTPRTFGGGTKLEIK
notes: Hybridoma mAb
Regarding B13, the concentration for half-maximal inhibition (IC50) with human CXCL13 [1] turned out to be 1.23 µg/mL. Further, the binding result with mouse CXCL13 and in the test with cynomolgus CXCL13 was “no binding” in each case. Moreover, the concentration giving a half-maximal response (EC50) with human CXCL13 [2] amounted to 0.0192 µg/mL.
